Test results reported in the Immune Epitope Database (IEDB).
Values belong to the sequence of their own block, whether it stands above or below them.

Legend:
HLA-A*01:01 [1] = test: IEDB peptide-MHC binding, purified MHC/competitive/radioactivity; filed as Kd, often an IC50 or EC50 that approximates it; ≥ and ≤ were set here for values at or beyond the usual limits of such assays
HLA-A*02:01 [2] = test: as above
HLA-A*02:02 = test: as above
HLA-A*02:03 = test: as above
HLA-A*02:06 = test: as above
HLA-A*03:01 [3] = test: as above
HLA-A*11:01 [4] = test: as above
HLA-A*31:01 [5] = test: as above
HLA-A*33:01 = test: as above
HLA-A*68:01 = test: as above
HLA-A*68:02 = test: as above
HLA-B*07:02 [6] = test: as above
HLA-B*08:01 [7] = test: as above; conditions: source organism: Hepacivirus hominis
HLA-B*35:01 = test: as above
HLA-B*51:01 = test: as above
HLA-B*53:01 = test: as above
HLA-B*54:01 = test: as above
HLA-A*01:01 [8] = test: IEDB peptide-MHC binding, purified MHC/direct/fluorescence; filed as Kd, often an IC50 or EC50 that approximates it; ≥ and ≤ were set here for values at or beyond the usual limits of such assays
HLA-A*02:01 [9] = test: as above
HLA-A*03:01 [10] = test: as above
HLA-A*11:01 [11] = test: as above
HLA-A*26:01 [12] = test: as above; conditions: source organism: Bacillus licheniformis
HLA-A*31:01 [13] = test: as above
HLA-A*69:01 = test: as above; conditions: source organism: Bacillus licheniformis
HLA-B*07:02 [14] = test: as above
HLA-B*08:01 [15] = test: as above
HLA-B*15:01 = test: as above; conditions: source organism: Bacillus licheniformis
HLA-B*27:05 = test: as above
HLA-B*40:01 = test: as above; conditions: source organism: Bacillus licheniformis
HLA-B*58:01 = test: as above
HLA-B*15:17 = test: IEDB peptide-MHC binding, purified MHC/competitive/fluorescence; filed as Kd, often an IC50 or EC50 that approximates it; ≥ and ≤ were set here for values at or beyond the usual limits of such assays; conditions: source organism: Bacillus licheniformis
HLA-A*26:01 [16] = test: IEDB peptide-MHC binding, purified MHC/competitive/radioactivity; filed as Kd, often an IC50 or EC50 that approximates it; ≥ and ≤ were set here for values at or beyond the usual limits of such assays; conditions: source organism: Lassa virus Josiah
HLA-A*29:02 [17] = test: as above; conditions: source organism: Lassa virus Josiah
HLA-A*30:01 = test: as above; conditions: source organism: Lassa virus Josiah
HLA-A*30:02 = test: as above; conditions: source organism: Lassa virus Josiah
HLA-A*32:01 = test: as above; conditions: source organism: Lassa virus Josiah
HLA-A*29:02 [18] = test: IEDB peptide-MHC binding, purified MHC/direct/fluorescence; filed as Kd, often an IC50 or EC50 that approximates it; ≥ and ≤ were set here for values at or beyond the usual limits of such assays; conditions: source organism: Corynebacterium diphtheriae
HLA-B*44:02 = test: as above; conditions: source organism: Corynebacterium diphtheriae
HLA-B*46:01 = test: as above; conditions: source organism: Corynebacterium diphtheriae
HLA-B*48:01 = test: as above; conditions: source organism: Corynebacterium diphtheriae
HLA-B*57:01 = test: as above; conditions: source organism: Corynebacterium diphtheriae
[19] = source organism: Hepacivirus hominis
[20] = source organism: Vaccinia virus WR
[21] = source organism: Bacillus licheniformis
[22] = source organism: Lassa virus Josiah
[23] = source organism: Trypanosoma cruzi
[24] = source organism: Corynebacterium diphtheriae

Sequence: HSKRKCDEL
Kd (HLA-A*01:01 [1]; [19]): ≥ 59.8 µM
Kd (HLA-A*02:01 [2]; [19]): ≥ 33.9 µM
Kd (HLA-A*02:02; [19]): ≥ 43.4 µM
Kd (HLA-A*02:03; [19]): 12.4 µM
Kd (HLA-A*02:06; [19]): 1.15 µM
Kd (HLA-A*03:01 [3]; [19]): ≥ 78 µM
Kd (HLA-A*11:01 [4]; [19]): ≥ 77.9 µM
Kd (HLA-A*31:01 [5]; [19]): ≥ 77.9 µM
Kd (HLA-A*33:01; [19]): ≥ 77.7 µM
Kd (HLA-A*68:01; [19]): ≥ 77.7 µM
Kd (HLA-A*68:02; [19]): ≥ 69.8 µM
Kd (HLA-B*07:02 [6]; [19]): ≥ 59.8 µM
Kd (HLA-B*08:01 [7]): ≥ 77.6 µM
Kd (HLA-B*35:01; [19]): ≥ 77.4 µM
Kd (HLA-B*51:01; [19]): ≥ 46.5 µM
Kd (HLA-B*53:01; [19]): ≥ 30.1 µM
Kd (HLA-B*54:01; [19]): ≥ 36.1 µM

Sequence: IVLFQRFLR
Kd (HLA-A*02:01 [2]; [20]): ≥ 78.1 µM
Kd (HLA-A*02:02; [20]): ≥ 54.2 µM
Kd (HLA-A*02:03; [20]): ≥ 48.1 µM
Kd (HLA-A*02:06; [20]): ≥ 47.7 µM
Kd (HLA-A*03:01 [3]; [20]): 0.242 µM
Kd (HLA-A*11:01 [4]; [20]): 0.0134 µM
Kd (HLA-A*31:01 [5]; [20]): 0.000185 µM
Kd (HLA-A*33:01; [20]): 0.00238 µM
Kd (HLA-A*68:01; [20]): 0.00124 µM
Kd (HLA-A*68:02; [20]): ≥ 51.9 µM
Kd (HLA-B*07:02 [6]; [20]): ≥ 77.5 µM
Kd (HLA-B*35:01; [20]): ≥ 21.9 µM
Kd (HLA-B*51:01; [20]): ≥ 77.5 µM
Kd (HLA-B*53:01; [20]): ≥ 78.2 µM
Kd (HLA-B*54:01; [20]): ≥ 78.1 µM

Sequence: KTIECSKEL
Kd (HLA-A*01:01 [8]; [21]): ≥ 20 µM
Kd (HLA-A*02:01 [9]; [21]): 0.235 µM
Kd (HLA-A*03:01 [10]; [21]): ≥ 20 µM
Kd (HLA-A*11:01 [11]; [21]): ≥ 20 µM
Kd (HLA-A*26:01 [12]): ≥ 20 µM
Kd (HLA-A*31:01 [13]; [21]): 5.6 µM
Kd (HLA-A*69:01): ≥ 20 µM
Kd (HLA-B*07:02 [14]; [21]): ≥ 20 µM
Kd (HLA-B*08:01 [15]; [21]): ≥ 20 µM
Kd (HLA-B*15:01): 0.468 µM
Kd (HLA-B*27:05; [21]): ≥ 20 µM
Kd (HLA-B*40:01): ≥ 20 µM
Kd (HLA-B*58:01; [21]): 0.279 µM
Kd (HLA-B*15:17): 0.0099 µM

Sequence: LISIFLHLV
Kd (HLA-A*01:01 [1]; [22]): 1.91 µM
Kd (HLA-A*02:01 [2]; [22]): 0.0472 µM
Kd (HLA-A*02:02; [22]): 0.0111 µM
Kd (HLA-A*02:03; [22]): 0.0208 µM
Kd (HLA-A*02:06; [22]): 0.0804 µM
Kd (HLA-A*26:01 [16]): 10.3 µM
Kd (HLA-A*29:02 [17]): 11.8 µM
Kd (HLA-A*30:01): 1.17 µM
Kd (HLA-A*30:02): 9.09 µM
Kd (HLA-A*32:01): 6.7 µM
Kd (HLA-A*68:02; [22]): 0.0652 µM

Sequence: LLGLWGFAAL
Kd (HLA-A*02:01 [2]; [23]): 0.222 µM
Kd (HLA-A*02:02; [23]): 0.0282 µM
Kd (HLA-A*02:03; [23]): 0.036 µM
Kd (HLA-A*02:06; [23]): 0.466 µM
Kd (HLA-A*68:02; [23]): ≥ 125 µM

Kd (HLA-A*01:01 [8]; [24]): ≥ 20 µM
Kd (HLA-A*02:01 [9]; [24]): ≥ 20 µM
Kd (HLA-A*03:01 [10]; [24]): ≥ 20 µM
Kd (HLA-A*11:01 [11]; [24]): ≥ 20 µM
Kd (HLA-A*29:02 [18]): ≥ 20 µM
Kd (HLA-A*31:01 [13]; [24]): ≥ 20 µM
Kd (HLA-B*07:02 [14]; [24]): ≥ 20 µM
Kd (HLA-B*08:01 [15]; [24]): 7 µM
Kd (HLA-B*27:05; [24]): ≥ 20 µM
Kd (HLA-B*44:02): ≥ 20 µM
Kd (HLA-B*46:01): ≥ 20 µM
Kd (HLA-B*48:01): ≥ 20 µM
Kd (HLA-B*57:01): ≥ 20 µM
Kd (HLA-B*58:01; [24]): ≥ 20 µM
Sequence: VERRLVKVL
